The target of this experiment is anti-METH single chain antibody fragment scFv6H4. Description: crystal structure; apo scFv6H4, hanging drop; protein 14 mg/ml in 5 mM HEPES, 100 mM NaCl, 1 mM NaN3, pH 8.0; reservoir 1.6 M ammonium sulfate, 240 mM imidazole malate, pH 8.0; space group P2(1)3, one molecule in the asymmetric unit; trimer formed by the crystallographic 3-fold axis, with a Ni2+ ion and a sulfate on the axis.

B1: anti-METH single chain antibody fragment scFv6H4 (scFv, V domains shown)
VH: EVQLQESGPSLVKPSQTLSLTCSVTGDSVTSGYWSWIRQFPGNKLDYMGYISYRGSTYYNPSLKSRISITRDTSKNQVYLQLKSVSSEDTATYYCSYFDSDDYAMEYWGQGTSVTVSG
VL: QIVLTQSPAIMSASPGEKVTLTCSASSSVSSSHLYWYQQKPGSSPKLWIYSTSNLASGVPARFSGSGSGTSYSLTISSMEAEDAASYFCHQWSSFPFTFGSGTKLEIK
For the molecule B1, the stoichiometry N was 3.

For orientation: stoichiometry N means a count of units in the complex or per binding partner.

(Values after PMC3857803.)
